Results on five molecules are retold here after patent publication US6582689B1, “IL-18/IGIF chemotherapeutic compositions” (Smithkline Beecham Corporation, priority 1998, dated 2003).

Data set [1] concerns MOPC-315 plasmacytoma. The data set is described as follows: advanced MOPC-315 plasmacytoma, confirmation with higher IL-18 doses (Example IV). The class given is in vivo, mice. How it is done: The activity of IL-18 in combination with topotecan in mice bearing advanced MOPC-315 plasmacytoma was confirmed in a large experiment in which higher doses of IL-18 were used. In this experiment, topotecan was administered q4D×6 beginning on Day 10 and IL-18 was given qD×30 beginning on the same day. Both drugs were administered intraperitonealy and activity was assessed by tumor measurements.

The subject of data set [2] is Lewis lung carcinoma.
Procedure: Treatment was delayed until Day 7 when tumors were established and growing in the lungs. Half of the mice in each group were killed on Day 16 to determine effects of treatment on pulmonary tumor growth, the remaining mice were continued under treatment and monitored for survival. […] Topotecan was administered intraperitonealy q4D×7 beginning on Day 7 and ending on Day 32 and the doses shown are in mg/kg. Murine IL-18 was administered intraperitonealy UID from Day 7 to Day 32 and the doses shown are μg/mouse. There were 3 groups of control animals, all of which died between Day 17 and 30.
In data set [3] the test system is Lewis lung carcinoma. The data set is described as follows: advanced systemic Lewis lung carcinoma, confirmation with higher IL-18 doses (Example II). The note with it: for tumor weight and nodule count: Day 14.
Procedure: This experiment included the use of higher doses of IL-18. […] The remaining mice were continued under treatment and monitored for survival. Topotecan was administered intraperitonealy q4D×6 on Days 7, 11, 15, 19, 23, and 29; dosage levels shown are mg/kg. Murine IL-18 was administered intraperitonealy qD×26 from Day 7 to Day 33; dosage levels shown are μg/mouse.
Data set [4] deals with MOPC-315 plasmacytoma. The data set is described as follows: established subcutaneous MOPC-315 plasmacytoma (Example III). The class given is in vivo, BALB/c mice. How it is done:
The MOPC-315 plasmacytoma is analogous to the human cancer known as multiple myeloma. This tumor is a malignancy of the plasma cells, a mature form of B lymphocytes involved in antibody expression. MOPC-315 grows rapidly to a very large size in syngeneic BALB/c mice. It is not highly metastatic or invasive.
IL-18 was evaluated in mice bearing established subcutaneous MOPC-315 plasmacytoma. In order to increase chances of seeing an effect of immunotherapy, IL-18 was evaluated in combination with an effective chemotherapeutic agent as well as by monotherapy. IL-18 at 0.3, 1, 3, and 10 μg/mouse was administered daily intraperitonealy and topotecan was administered intraperitonealy on a q4D schedule at 9 and 15 mg/kg. Both drugs were started on Day 11 postimplantation when the median tumor volume ranged from 32 to 88 mg. Control tumors took 17.2 days to grow to 1 gram. (See FIGS. 5-7).

The test system of data set [5] is B16F10 melanoma. The data set is described as follows: advanced subcutaneous B16F10 melanoma (Example VI). Type of data set: in vivo, mice. The procedure: In this experiment, IL-18 was evaluated in an advanced syngeneic tumor model alone and in combination with chemotherapy. Mice bearing advanced subcutaneous B16F10 melanoma were treated with IL-18 alone or in combination with either cyclophosphamide or topotecan. Treatment was initiated on Day 11 postimplantation.

Data set [6] relates to B16F10 melanoma. The data set is described as follows: advanced subcutaneous B16F10 melanoma, repeat with cyclophosphamide (Example VII). Type of data set: in vivo, mice. To be noted: for regressions: treatment from median 100 mm^3 (Day 14).
The test system of data set [7] is mammary adenocarcinoma 16/c. The data set is described as follows: subcutaneous mammary adenocarcinoma 16/c, IL-18 and doxorubicin (Example IX). Type of data set: in vivo, mouse. The note with it: for regressions: alone or combined.
Procedure: (§1) An experiment was conducted to determine the effectiveness of IL-18 on its own and in combination with doxorubicin in the 16/c mammary adenocarcinoma tumor model. The 16/c line was implanted subcutaneously at a 1:10 brei and allowed to grow to a median of 52-109 mm^3 before initiation of treatment. Doxorubicin was administered intravenously on Days 12 and 19 at 7.2, 12, and 20 mg/kg. IL-18 was administered subcutaneously at 1, 10, and 100 μg/mouse on a qD×21 schedule starting from Day 12. The endpoints of this study were tumor growth delay and regression.
For data set [8] the following is noted: mouse, in vivo.
Procedure: as §1
A short description of data set [9]: toxicity and toxic deaths in the 16/c experiment (Example IX).
Procedure: as §1
For data set [10] the following is noted: paclitaxel 24 mg/kg iv qD×5.
Data set [11] relates to Madison 109 lung carcinoma. The data set is described as follows: subcutaneous Madison 109 lung carcinoma, IL-18 and paclitaxel (Example VIII). Type of data set: in vivo, mouse. To be noted: for regressions: alone or combined.
Data set [12] concerns colon 26 adenocarcinoma. The note with it: Hanaya et al. 1996; cited from earlier work.
The subject of data set [13] is MOPC-315 plasmacytoma. The data set is described as follows: advanced MOPC-315 plasmacytoma, schedule and route study (Example V). Type of data set: in vivo, mice. How it is done: The evaluation of IL-18 in combination with chemotherapy was repeated to establish: (a) how effective is IL-18 in tumor models when given subcutaneously and (b) whether IL-18 is active when given on an intermittent schedule or whether daily treatment is necessary. The experiment was set up again with topotecan in the advanced MOPC-315 plasmacytoma model with treatment starting on Day 10 when tumors were about 100 mm^3 in volume. Topotecan was given at its MTD of 15 mg/kg on a q4D regimen and IL-18 was given over a broad dosage range either intraperitonealy or subcutaneously on a q1D or q4D regimen. […] However, IL-18 was continued. (See FIGS. 11-13).

[14] abbreviates: topotecan MTD 15 mg/kg q4D, Day 16.
The mark [15] stands for this setting: topotecan 9 mg/kg ip q4D×6 from Day 7.
The mark [16] stands for this setting: topotecan 15 mg/kg ip q4D×6 from Day 7.
The mark [17] stands for this setting: topotecan MTD 15 mg/kg ip q4D from Day 11.
The mark [18] stands for this setting: cyclophosphamide MTD 300 mg/kg q7D.
Where [19] appears, read: IL-18 0.3 μg/mouse ip UID Day 7-32.
Setting [20] is: IL-18 1 μg/mouse ip UID Day 7-32.
Setting [21] is: IL-18 3 μg/mouse ip UID Day 7-32.
Setting [22] is: IL-18 10 μg/mouse ip UID Day 7-32.
Setting [23] is: IL-18 alone 0.3-10 μg/mouse ip UID, Day 16, no clear dose-response.
The mark [24] stands for this setting: IL-18 1 μg/mouse ip qD×26 Day 7-33.
[25] abbreviates: IL-18 3 μg/mouse ip qD×26 Day 7-33.
[26] abbreviates: IL-18 10 μg/mouse ip qD×26 Day 7-33.
The mark [27] stands for this setting: IL-18 30 μg/mouse ip qD×26 Day 7-33.
[28] abbreviates: IL-18 100 μg/mouse ip qD×26 Day 7-33.

“Also recorded” adds a separate entry of the source. Like-named read-outs stand apart in the source and are kept apart here.

Consider `CC[C@@]1(O)C(=O)OCc2c1cc1n(c2=O)Cc2cc3c(CN(C)C)c(O)ccc3nc2-1` [Topotecan, topotecan, reference compound], for which the complete regressions was 2/6 in [1] (topotecan MTD alone ip q4D×6 from Day 10) and 1/7 in data set [4] (setting [17]). Moreover, the effect on tumor entry in data set [1] (topotecan suboptimal dose alone) was “virtually no effect”. Further, the “Increase in Lifespan” value in [2] (topotecan 9.0 mg/kg (0.6×MTD) ip q4D×7 from Day 7) is listed as 63%; in [2] (topotecan 15 mg/kg (MTD) ip q4D×7 from Day 7) it was 68%; in data set [3] (setting [15]), 42%; in data set [3] (setting [16]) it was 86%. Further, the “Median Survival Time” value in data set [2] (topotecan 9.0 mg/kg ip q4D×7 from Day 7) was found to be 36 days; in [2] (topotecan 15 mg/kg ip q4D×7 from Day 7), 37 days; in data set [3] (setting [15]), 25.5 days; in data set [3] (setting [16]), 33.5 days. In addition, in [2] (setting [14]), the “average number of pulmonary tumor nodules” value stood at 45. Moreover, the “suppression of tumor growth” value in data set [2] (setting [14]) is greater than 90%. Besides, the “tumor weight and nodule count” value was “good reduction in tumor weight and nodule count” in data set [3] (topotecan MTD 15 mg/kg); “lesser effect on both parameters” in [3] (topotecan lower dose 9 mg/kg). In addition, the regressions result in data set [4] (topotecan 9 mg/kg ip q4D) was “no regressions”. Further, the tumor growth delay is 4 days in [4] (topotecan 9 mg/kg ip q4D) and “about 12 days” in data set [4] (setting [17]). In [5] (topotecan at its MTD), the antitumor activity result is “inactive”.

`O=P1(N(CCCl)CCCl)NCCCO1` (stereo not shown) [Cyclophosphamide, cyclophosphamide]: the tumor growth delay in data set [6] (cyclophosphamide MTD) is 14 days; in [6] (cyclophosphamide suboptimal dose 180 mg/kg), 4 days; in [5] (setting [18]), 14 days. The regressions entry in data set [6] is recorded as “no regressions”. Also, in data set [5] (setting [18]), the increase in survival is on record as 95%.

With `COc1cccc2c1C(=O)c1c(O)c3c(c(O)c1C2=O)C[C@@](O)(C(=O)CO)C[C@@H]3O[C@H]1C[C@H](N)[C@H](O)[C@H](C)O1` [Doxorubicin, doxorubicin], the regressions result in data set [7] is recorded as “no regressions”. Further, the “tumor growth delay” value in data set [7] (doxorubicin 7.2, 12, 20 mg/kg iv) is on record as “dose-dependent tumor growth delay”. The efficacy entry in data set [7] (doxorubicin at 1/3 of its MTD) is on record as “little or no efficacy”. For the same molecule, the weight loss result in data set [8] is listed as “no weight loss”. In [9] (mouse, in vivo, iv), this molecule came in with an MTD of 20 mg/kg.

Molecule `CC(=O)O[C@H]1C(=O)[C@@]2(C)[C@H]([C@H](OC(=O)c3ccccc3)[C@]3(O)C[C@H](OC(=O)[C@H](O)[C@@H](NC(=O)c4ccccc4)c4ccccc4)C(C)=C1C3(C)C)[C@]1(OC(C)=O)CO[C@@H]1C[C@@H]2O` [Paclitaxel, paclitaxel, reference compound] registered a body weight loss in data set [10] of 4.7 g. Moreover, the regressions result in data set [11] is on record as “no regressions”. Moreover, in data set [11] (paclitaxel 12 mg/kg iv qD×5), the “ILS (increased life span)” value stood at 27% ILS. The “T-C: tumor growth delay” value in data set [11] (paclitaxel 12 mg/kg iv qD×5 (Days 9-13)) is on record as “T-C 3.5 days,”. Also, in [11] (paclitaxel 24 mg/kg iv qD×5), the “ILS (increased life span)” value was 35% ILS and the “T-C: tumor growth delay” value is “T-C 9.7 days,”. Besides, in [11] (paclitaxel alone), the “survival” value is “minimal prolongation of survival” and the “tumor growth delay” value is “minimal tumor growth delay”.

B1: IL-18: cytokine, interferon-γ-inducing factor; murine IL-18 (SEQ ID NO:2) was administered to mice (protein)
chain: NFGRLHCTTAVIRNINDQVLFVDKRQPVFEDMTDIDQSASEPQTRLIIYMYKDSEVRGLAVTLSVKDSKMSTLSCKNKIISFEEMDPPENIDDIQSDLIFFQKRVPGHNKMEFESSLYEGHFLACQKEDDAFKLILKKKDENGDKSVMFTLTNLHQS
modifications: Mouse
For B1, the “metastasis and growth of tumor” value in data set [12] is “inhibit the metastasis and growth of colon 26 adenocarcinoma”. Further, in [1] (IL-18 alone 100 μg/mouse/day ip qD×30 from Day 10), the complete regressions is reported as 4 of 6. In [1] (IL-18 alone, doses lower than 100 μg/mouse/day), the effect on tumor result is reported as “ineffective”. The “tumor growth delay” value in data set [7] (IL-18 alone 1-100 μg/mouse, no dose-response) was “less than a week”; in data set [4] (IL-18 alone 0.3, 1, 3, 10 μg/mouse daily ip from Day 11), 1.3 to 3.1 days; in data set [6] (IL-18 alone), “about 2 days”. The regressions entry in data set [7], in [6] and in data set [11] was “no regressions” each time. Also, the antitumor activity result in [13] (IL-18 alone q1D 100 μg/day, ip and sc) is given as “active”. The route comparison entry in data set [13] (IL-18 alone q1D 100 μg/day, ip versus sc) is on record as “intraperitoneal was more effective”. Also, the induction of regression entry in [13] (IL-18 alone, intermittent, 1000 or 100 μg/dose) is listed as “ineffective in inducing regression”. Also, the “Increase in Lifespan” value in data set [2] (setting [19]) was determined as 0%; in data set [2] (setting [20]), 2%; in [2] (setting [21]), 4%; in data set [2] (setting [22]) it was 9%; in data set [3] (setting [24]) it was 11%; in data set [3] (setting [25]), 0%. The “Increase in Lifespan” value in data set [3] (setting [26]) stood at 0%; in data set [3] (setting [27]), 3%; in data set [3] (setting [28]) it was 22%. For the same molecule, the “Median Survival Time” value is 22 days in data set [2] (setting [19]); 22.5 days in [2] (setting [20]); 23 days in [2] (setting [21]); 24 days in data set [2] (setting [22]); 20 days in data set [3] (setting [24]); 18 days in [3] (setting [25]). Besides, the “Median Survival Time” value worked out at 18 days in data set [3] (setting [26]), 18.5 days in data set [3] (setting [27]) and 22 days in data set [3] (setting [28]). For the same molecule, the “effect on survival time” value in data set [2] (IL-18 alone 0.3-10 μg/mouse ip UID) is given as “no effect on survival time; also recorded: did not have an enhanced median survival time”. For the same molecule, the “lung tumor nodule count” value in data set [2] (setting [23]) is “significantly decreased”. Besides, the lung tumor weight entry in [2] (setting [23]) is “significantly decreased”. The “effect on tumor growth of established tumors” value in data set [4] (IL-18 alone 0.3-10 μg/mouse daily ip from Day 11) is “only a minimal effect on the tumor growth; also recorded: no effect of IL-18 alone on tumor growth”. The “T-C: tumor growth delay” value in data set [11] (IL-18 1 μg sc qD×21) is reported as “T-C 1.7 days,”; in data set [11] (IL-18 10 μg sc qD×21), “T-C 2.1 days,”; in [11] (IL-18 100 μg sc qD×21) it was “T-C 2.8 days,”. Moreover, the “ILS (increased life span)” value in [11] (IL-18 10 μg sc qD×21) came to 12% ILS; in data set [11] (IL-18 100 μg sc qD×21), 0% ILS. In addition, the “tumor growth” value in [11] (IL-18 alone at the low dose) is “without delaying tumor growth”. Also, the “ILS (effect on survival time)” value in [5] (IL-18 alone from Day 11) was less than 30%. Moreover, in data set [5] (IL-18 alone from Day 11), the “effect on tumor growth” value is “no effect on tumor growth”. For the same molecule, the toxicity entry in [9] (IL-18 1 μg/mouse qD×21 from Day 12), in data set [9] (IL-18 10 μg/mouse qD×21 from Day 12) and in data set [9] (IL-18 100 μg/mouse qD×21 from Day 12) was “Not Toxic” in each case.
